Source: the RNAGym collection of RNA variant scans (doi:10.1073/pnas.2313332121)

B1: TPR t1 (parent)
chain: GACCAAUCUGCCCUCAGAGCUCGAGAACAUCUUCGGAUGCAGAGGAGGCAGGCUUCGGUGGCGCGAUAGCGCCAACGUCCUCAACCUCCAAUGCAUCCCACCACAUGAUGAUGCCUGAAGAGCCUUGGUUUUUUG

Variants of: B1
Experiment: polymerase ribozyme fitness, log enrichment relative to wild type (log ratio); higher = more active; in vitro selection for triplet polymerase activity
Procedure, shortened: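 Each subunit of a heterodimeric triplet polymerase ribozyme was mutagenized into a library by PCR, transcribed, and subjected to one round of in vitro selection, run in triplicate. Libraries were annealed with a biotinylated primer, the partner subunit and triplets, incubated frozen at −7 °C, and extended constructs were gel-excised, captured on streptavidin beads and recovered by RT-PCR. Input and output libraries were sequenced on Illumina, keeping genotypes with ≥10 input reads and ≥1 read per output. Fitness is log base 2 of genotype enrichment divided by wild-type enrichment, from inverse-variance-weighted replicate averages.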

| Variant | polymerase ribozyme fitness (log ratio) |
| --- | --- |
| GACCAAUCUGCCCUCAGAGCUCGAGAACAUCUUCGGAUGCAGAGGAGGCAGGCUUCGGUGGCGCGAUAGCGCCAACGUCCUCAACCUCCAAUGCAUCCCACCACAUGAUGAUGCCUGAAGAGCCUAGCUUUUUUG [U126A G128C] | -2.86 |
| GACCAAUCUGCCCUCAGAGCUCGAGAACAUCUUCGGAUGCAGAGGAGGCAGGCUUCGGUGGCGCGAUAGCGCCAACGUCCUCAACCUCCAAUGCAUCCCACCACAUGAUGAUGCCUGAAGAGUCGUGGUUUUUUG [C123U U125G] | 1.08 |
| GACCAAUCUGCCCUCAGAGCUCGAGAACAUCUUCGGAUGCAGAGGAGGCAGGCUUCGGUGGCGCGAUAGCGCCAACGUCCUCAACCUCCAAUGCAUCCCACCACAUGAUGAUGCCUGAAGAGGCUUGCUUUUUUG [C123G G128C] | -0.446 |
| GACCAAUCUGCCCUCAGAGCUCGAGAACAUCUUCGGAUGCAGAGGAGGCAGGCUUCGGUGGCGCGAUAGCGCCAACGUCCUCAACCUCCAAUGCAUCCCACCACAUGAUGAUGCCUGAAGAGUCUAGGUUUUUUU [C123U U126A G135U] | 0.771 |
| GACCAAUCUGCCCUCAGAGCUCGAGAACAUCUUCGGAUGCAGAGGAGGCAGGCUUCGGUGGCGCGAUAGCGCCAACGUCCUCAACCUCCAAUGCAUCCCACCACAUGAUGAUGCCUGAAGAGCGUUGGUUUUUUG [C124G] | 1.59 |
| GACCAAUCUGCCCUCAGAGCUCGAGAACAUCUUCGGAUGCAGAGGAGGCAGGCUUCGGUGGCGCGAUAGCGCCAACGUCCUCAACCUCCAAUGCAUCCCACCACAUGAUGAUGCCUGAAGAGCUUUGGUUUUUUG [C124U] | 1.54 |
| GACCAAUCUGCCCUCAGAGCUCGAGAACAUCUUCGGAUGCAGAGGAGGCAGGCUUCGGUGGCGCGAUAGCGCCAACGUCCUCAACCUCCAAUGCAUCCCACCACAUGAUGAUGCCUGAAGAGCAUUGGUUUUUUG [C124A] | 1.78 |
| GACCAAUCUGCCCUCAGAGCUCGAGAACAUCUUCGGAUGCAGAGGAGGCAGGCUUCGGUGGCGCGAUAGCGCCAACGUCCUCAACCUCCAAUGCAUCCCACCACAUGAUGAUGCCUGAAGAGCCUUCGUUUUUUG [G127C] | -1.03 |
| GACCAAUCUGCCCUCAGAGCUCGAGAACAUCUUCGGAUGCAGAGGAGGCAGGCUUCGGUGGCGCGAUAGCGCCAACGUCCUCAACCUCCAAUGCAUCCCACCACAUGAUGAUGCCUGAAGAGCCUUAGUUUUUUG [G127A] | -1.25 |
| GACCAAUCUGCCCUCAGAGCUCGAGAACAUCUUCGGAUGCAGAGGAGGCAGGCUUCGGUGGCGCGAUAGCGCCAACGUCCUCAACCUCCAAUGCAUCCCACCACAUGAUGAUGCCUGAAGAGUCUUGGUUUAUUG [C123U U132A] | 2.23 |
| GACCAAUCUGCCCUCAGAGCUCGAGAACAUCUUCGGAUGCAGAGGAGGCAGGCUUCGGUGGCGCGAUAGCGCCAACGUCCUCAACCUCCAAUGCAUCCCACCACAUGAUGAUGCCUGAAGAGACCUGGGUUUUUG [C123A U125C U129G] | -1.5 |
| GACCAAUCUGCCCUCAGAGCUCGAGAACAUCUUCGGAUGCAGAGGAGGCAGGCUUCGGUGGCGCGAUAGCGCCAACGUCCUCAACCUCCAAUGCAUCCCACCACAUGAUGAUGCCUGAAGAUCUUUGGUUUUUUG [G122U C124U] | 0.953 |
| GACCAAUCUGCCCUCAGAGCUCGAGAACAUCUUCGGAUGCAGAGGAGGCAGGCUUCGGUGGCGCGAUAGCGCCAACGUCCUCAACCUCCAAUGCAUCCCACCACAUGAUGAUGCCUGAAGAGUCUUGCUUUUUUG [C123U G128C] | -0.354 |
| GACCAAUCUGCCCUCAGAGCUCGAGAACAUCUUCGGAUGCAGAGGAGGCAGGCUUCGGUGGCGCGAUAGCGCCAACGUCCUCAACCUCCAAUGCAUCCCACCACAUGAUGAUGCCUGAAGAGCCAUGGUUUUUUG [U125A] | -0.431 |
| GACCAAUCUGCCCUCAGAGCUCGAGAACAUCUUCGGAUGCAGAGGAGGCAGGCUUCGGUGGCGCGAUAGCGCCAACGUCCUCAACCUCCAAUGCAUCCCACCACAUGAUGAUGCCUGAAGAGCCCUGGUUUUUUG [U125C] | -1.8 |
| GACCAAUCUGCCCUCAGAGCUCGAGAACAUCUUCGGAUGCAGAGGAGGCAGGCUUCGGUGGCGCGAUAGCGCCAACGUCCUCAACCUCCAAUGCAUCCCACCACAUGAUGAUGCCUGAAGAGCCGUGGUUUUUUG [U125G] | -1.01 |
| GACCAAUCUGCCCUCAGAGCUCGAGAACAUCUUCGGAUGCAGAGGAGGCAGGCUUCGGUGGCGCGAUAGCGCCAACGUCCUCAACCUCCAAUGCAUCCCACCACAUGAUGAUGCCUGAAGAGCAUUGGUUUUGUG [C124A U133G] | -0.27 |
| GACCAAUCUGCCCUCAGAGCUCGAGAACAUCUUCGGAUGCAGAGGAGGCAGGCUUCGGUGGCGCGAUAGCGCCAACGUCCUCAACCUCCAAUGCAUCCCACCACAUGAUGAUGCCUGAAGAGCCAUCGUUUUUUG [U125A G127C] | -1.91 |
| GACCAAUCUGCCCUCAGAGCUCGAGAACAUCUUCGGAUGCAGAGGAGGCAGGCUUCGGUGGCGCGAUAGCGCCAACGUCCUCAACCUCCAAUGCAUCCCACCACAUGAUGAUGCCUGAAGAGUCUUGGUUUUUCG [C123U U134C] | 1.29 |
| GACCAAUCUGCCCUCAGAGCUCGAGAACAUCUUCGGAUGCAGAGGAGGCAGGCUUCGGUGGCGCGAUAGCGCCAACGUCCUCAACCUCCAAUGCAUCCCACCACAUGAUGAUGCCUGAAGAGCAUUGGUUGUUUG [C124A U131G] | 1.63 |
| GACCAAUCUGCCCUCAGAGCUCGAGAACAUCUUCGGAUGCAGAGGAGGCAGGCUUCGGUGGCGCGAUAGCGCCAACGUCCUCAACCUCCAAUGCAUCCCACCACAUGAUGAUGCCUGAAGAGCCAGGGUUUUUUG [U125A U126G] | -1.8 |

| Variant | polymerase ribozyme fitness (log ratio) |
| --- | --- |
| GACCAAUCUGCCCUCAGAGCUCGAGAACAUCUUCGGAUGCAGAGGAGGCAGGCUUCGGUGGCGCGAUAGCGCCAACGUCCUCAACCUCCAAUGCAUCCCACCACAUGAUGAUGCCUGAAGAGCCUGGGAUUUUUG [U126G U129A] | -2.97 |
| GACCAAUCUGCCCUCAGAGCUCGAGAACAUCUUCGGAUGCAGAGGAGGCAGGCUUCGGUGGCGCGAUAGCGCCAACGUCCUCAACCUCCAAUGCAUCCCACCACAUGAUGAUGCCUGAAGAGCGUUGGUUGUUUG [C124G U131G] | 1.33 |
| GACCAAUCUGCCCUCAGAGCUCGAGAACAUCUUCGGAUGCAGAGGAGGCAGGCUUCGGUGGCGCGAUAGCGCCAACGUCCUCAACCUCCAAUGCAUCCCACCACAUGAUGAUGCCUGAAGAGCGUUGGUUAUUUG [C124G U131A] | 2.2 |
| GACCAAUCUGCCCUCAGAGCUCGAGAACAUCUUCGGAUGCAGAGGAGGCAGGCUUCGGUGGCGCGAUAGCGCCAACGUCCUCAACCUCCAAUGCAUCCCACCACAUGAUGAUGCCUGAAGAGCCUGGGUGUUUUG [U126G U130G] | -3.64 |
| GACCAAUCUGCCCUCAGAGCUCGAGAACAUCUUCGGAUGCAGAGGAGGCAGGCUUCGGUGGCGCGAUAGCGCCAACGUCCUCAACCUCCAAUGCAUCCCACCACAUGAUGAUGCCUGAAGAGACCUGGUUUUUUG [C123A U125C] | 0.193 |
| GACCAAUCUGCCCUCAGAGCUCGAGAACAUCUUCGGAUGCAGAGGAGGCAGGCUUCGGUGGCGCGAUAGCGCCAACGUCCUCAACCUCCAAUGCAUCCCACCACAUGAUGAUGCCUGAAGAGCUUUGGAUUUUUG [C124U U129A] | -0.35 |
| GACCAAUCUGCCCUCAGAGCUCGAGAACAUCUUCGGAUGCAGAGGAGGCAGGCUUCGGUGGCGCGAUAGCGCCAACGUCCUCAACCUCCAAUGCAUCCCACCACAUGAUGAUGCCUGAAGAGCCUUCAUUUUUUG [G127C G128A] | -1.79 |
| GACCAAUCUGCCCUCAGAGCUCGAGAACAUCUUCGGAUGCAGAGGAGGCAGGCUUCGGUGGCGCGAUAGCGCCAACGUCCUCAACCUCCAAUGCAUCCCACCACAUGAUGAUGCCUGAAGAGCCAUGGUUGUUUG [U125A U131G] | 0.203 |
| GACCAAUCUGCCCUCAGAGCUCGAGAACAUCUUCGGAUGCAGAGGAGGCAGGCUUCGGUGGCGCGAUAGCGCCAACGUCCUCAACCUCCAAUGCAUCCCACCACAUGAUGAUGCCUGAAGAGCCAUGGUUCUUUG [U125A U131C] | -0.281 |
| GACCAAUCUGCCCUCAGAGCUCGAGAACAUCUUCGGAUGCAGAGGAGGCAGGCUUCGGUGGCGCGAUAGCGCCAACGUCCUCAACCUCCAAUGCAUCCCACCACAUGAUGAUGCCUGAAGAGCCUGAGUUUUUUG [U126G G127A] | -2.54 |
| GACCAAUCUGCCCUCAGAGCUCGAGAACAUCUUCGGAUGCAGAGGAGGCAGGCUUCGGUGGCGCGAUAGCGCCAACGUCCUCAACCUCCAAUGCAUCCCACCACAUGAUGAUGCCUGAAGAGACUUGGUUUAUUG [C123A U132A] | 1.54 |
| GACCAAUCUGCCCUCAGAGCUCGAGAACAUCUUCGGAUGCAGAGGAGGCAGGCUUCGGUGGCGCGAUAGCGCCAACGUCCUCAACCUCCAAUGCAUCCCACCACAUGAUGAUGCCUGAAGAGCCUUCGUCUUUUG [G127C U130C] | 0.0399 |
| GACCAAUCUGCCCUCAGAGCUCGAGAACAUCUUCGGAUGCAGAGGAGGCAGGCUUCGGUGGCGCGAUAGCGCCAACGUCCUCAACCUCCAAUGCAUCCCACCACAUGAUGAUGCCUGAAGAGCUUUGGUUUUGUG [C124U U133G] | 0.97 |
| GACCAAUCUGCCCUCAGAGCUCGAGAACAUCUUCGGAUGCAGAGGAGGCAGGCUUCGGUGGCGCGAUAGCGCCAACGUCCUCAACCUCCAAUGCAUCCCACCACAUGAUGAUGCCUGAAGAGACUUGGUUUUUUG [C123A] | 0.556 |
| GACCAAUCUGCCCUCAGAGCUCGAGAACAUCUUCGGAUGCAGAGGAGGCAGGCUUCGGUGGCGCGAUAGCGCCAACGUCCUCAACCUCCAAUGCAUCCCACCACAUGAUGAUGCCUGAAGAGGCUUGGUUUUUUG [C123G] | 1.8 |
| GACCAAUCUGCCCUCAGAGCUCGAGAACAUCUUCGGAUGCAGAGGAGGCAGGCUUCGGUGGCGCGAUAGCGCCAACGUCCUCAACCUCCAAUGCAUCCCACCACAUGAUGAUGCCUGAAGAGUCUUGGUUUUUUG [C123U] | 1.07 |
| GACCAAUCUGCCCUCAGAGCUCGAGAACAUCUUCGGAUGCAGAGGAGGCAGGCUUCGGUGGCGCGAUAGCGCCAACGUCCUCAACCUCCAAUGCAUCCCACCACAUGAUGAUGCCUGAAGAGCUUUGGUUUUUUU [C124U G135U] | -0.0615 |
| GACCAAUCUGCCCUCAGAGCUCGAGAACAUCUUCGGAUGCAGAGGAGGCAGGCUUCGGUGGCGCGAUAGCGCCAACGUCCUCAACCUCCAAUGCAUCCCACCACAUGAUGAUGCCUGAAGAGUCUUGGUUUUUUC [C123U G135C] | 1.48 |
| GACCAAUCUGCCCUCAGAGCUCGAGAACAUCUUCGGAUGCAGAGGAGGCAGGCUUCGGUGGCGCGAUAGCGCCAACGUCCUCAACCUCCAAUGCAUCCCACCACAUGAUGAUGCCUGAAGAGUCUUGGUUUUUUU [C123U G135U] | -0.4 |
| GACCAAUCUGCCCUCAGAGCUCGAGAACAUCUUCGGAUGCAGAGGAGGCAGGCUUCGGUGGCGCGAUAGCGCCAACGUCCUCAACCUCCAAUGCAUCCCACCACAUGAUGAUGCCUGAAGAGCGUUGGUUUAUUG [C124G U132A] | 2.04 |
| GACCAAUCUGCCCUCAGAGCUCGAGAACAUCUUCGGAUGCAGAGGAGGCAGGCUUCGGUGGCGCGAUAGCGCCAACGUCCUCAACCUCCAAUGCAUCCCACCACAUGAUGAUGCCUGAAGAGCAUUGAUUUUUUG [C124A G128A] | -0.565 |
